Assay results from paper PMC5943153 (Molecular microbiology, 2018).

What was measured:
Test in all cases: two-hybrid
[1] = biological target: T1, T25-HP1492 (Nfu) (Helicobacter pylori strain 26695, UniProt O26025 2-89)
T1 sequence (looked up): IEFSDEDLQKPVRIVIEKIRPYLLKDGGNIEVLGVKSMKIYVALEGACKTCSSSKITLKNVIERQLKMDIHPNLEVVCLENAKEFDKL

[2] = biological target: T2, HP0221-T25 (NifU) (Helicobacter pylori strain 26695, UniProt O25009 2-326)
T2 sequence (looked up): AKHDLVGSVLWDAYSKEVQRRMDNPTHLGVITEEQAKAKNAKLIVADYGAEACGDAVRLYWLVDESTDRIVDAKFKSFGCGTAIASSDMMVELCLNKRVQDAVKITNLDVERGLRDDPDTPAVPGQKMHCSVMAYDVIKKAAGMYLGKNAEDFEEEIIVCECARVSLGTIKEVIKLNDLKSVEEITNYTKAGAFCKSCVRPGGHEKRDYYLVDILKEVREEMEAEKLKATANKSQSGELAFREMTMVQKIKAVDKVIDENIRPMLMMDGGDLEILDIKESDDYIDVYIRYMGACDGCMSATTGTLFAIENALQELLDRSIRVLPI

[3] = biological target: T3, T25-HP0221 (NifU) (Helicobacter pylori strain 26695, UniProt O25009 2-326)
T3 sequence (looked up): T2 sequence (looked up)

[4] = biological target: T25-HP0220 (NifS) (Helicobacter pylori strain 26695, UniProt O25008 2-387)

B1: T18-HP0132 (natural protein, Helicobacter pylori strain 26695, UniProt P56072 2-455, looked up)
chain: ASFSILSIFKIGVGPSSSHTIGPMEAGARFCESLKGILEQVVRVQITLHGSLALTGKGHLSDEAVLIGLHGIYANELEVTTKKALLHEALENKVLKLANQHHIPFDYAKDLIFDNKPLTRHQNALILKAFNSKNEVLKEETYYSVGGGFVYTEKELDNLSEEDGNESIAYDFSSAKELLELCQKHQKSIAEIVRLRENALKNHPDATMVKIYHAMLECYDNGANSKERYLPGSLKVTRLAPSIKTRLEKHPTSGKDPLALIDYISLYARAIAEENASGGKVVTAPTNGACAVVPSVLLYAKNHLFENLSQKAINDFLLTSAAIGYLYKKNASLSGAEAGCQAEIGVASSMAAGGLAHLCQATTQQVLIASEIAMEHHLGLTCDPVGGLVQIPCIERNVLGAIKAISASKLALEDEYKPKVSLDEVIATMYATGKDMNEKYKETSLGGLAKTLKC
growth OD595 in M63-maltose [1]: 0.27 OD595
growth OD595 in M63-maltose [2]: 0.14 OD595
growth OD595 in M63-maltose [3]: 0.21 OD595

B2: T18-HP0666 (natural protein, Helicobacter pylori strain 26695, UniProt O25377 2-433, looked up)
chain: NENINENIFEEVGDACVKCAKCVPGCTIYRIHKDEATSPRGFLDLMRLNAQNKLQLDTNLKHLLETCFLCTACVEICPFHLPIDTLIEKAREKIAQKHGIAWYKKSYFSLLKNRKKMDRVFSTAHFLAPCVFKQVGDSLEPRAVFKGLFKRFKKSALPPLNQKSFLQKHAEMKLLENPIQKVAIFIGCLSNYHYQQVGESLLYILEKLNIQAIIPKQECCSAPAYFTGDKDTTLFLVKKNIEWFESYLDKVDAIIVPEATCASMLINDYYKVFLGEKDKDLYVKRLEKITPKIYLASVFLEKHTPLKSLLEKIPKGKKETITYHNPCHAKKTLNAHKEVRNLLNLHYEIKEMPDNCCGFGGITMQTQKAGFSLKVGLLRAKEIIDTKAAILSAECGACHMQLNNALKSLDDPNTPPFLHPLELIAKALKSAE
growth OD595 in M63-maltose [2]: 0.11 OD595
growth OD595 in M63-maltose [3]: 0.48 OD595

B3: T18-HP1428 (natural protein, Helicobacter pylori strain 26695, UniProt O25970 2-357, looked up)
chain: KASIYDFTLKELSQLLKPSFRAKQLYLWLYAKYKTSFKDMQNNFSKDFIAYLEREFALRTIEITHVRESVDGSKKYLFKSLRDNHTFEAVLLKMKDKKIDAETNAILEREKYTVCVSCQIGCQVGCSFCFTQKGGFVRNLKASEIIQQALLIKEDNNLPLEKALNIVFMGMGEPLNNLDEVCKAIEIFNTGMQISPKRITISTSGVADKIPILAGKNLGVQLAISLHAVDDKTRSSLMPLNKKYNIECVLNEVRKWPLEQRKRVMFEYLLIKDLNDSLDCAKKLLKLLNGIKSKVNLILFNPHEGSKFERPSLENARMFADFLNSKGLLCTIRESKALDIEAACGQLREKKLSQQI
growth OD595 in M63-maltose [1]: 0.08 OD595
growth OD595 in M63-maltose [2]: 0.27 OD595
growth OD595 in M63-maltose [3]: 0.15 OD595

B4: T18-HP0568 (natural protein, Helicobacter pylori strain 26695, UniProt O25292 2-255, looked up)
chain: PLELFEKVCKEVAPLTQMITLHVLGDPCKLKNLNHYLSTARRFSLKVDLVTSGVYLHDFETLLQDVIYQISISLDAGLDHRNKLNQHRYIQKILEFCRYKCEKNSEVFLNLRIQDSTLDKHQNLIKPFLESFECVSLEGLKTQGRARLFKKSFLNIQKTFKWPSLNAQNPLNQKSKIPYCYGLIKQIAILSNGVVVPCCMDTQANISLGDLNHTPLKDVLKSQKAMAIKTHFLKGEALELLCQNCSYPLIRYKK
growth OD595 in M63-maltose [1]: 0.14 OD595
growth OD595 in M63-maltose [2]: 0.36 OD595
growth OD595 in M63-maltose [3]: 0.13 OD595

B5: T18-HP0585 (natural protein, Helicobacter pylori strain 26695, UniProt O25307 2-218, looked up)
chain: KMGLKRAKTHQKAQQIKELLLKHYPNQTTELRHKNPYELLVATILSAQCTDARVNQITPKLFEKYPSVNDLALASLEEVKEIIKSVSYFNNKSKHLISMAQKVVRDFKGVIPSTQKELMSLDGVGQKTANVVLSVCFDANCIAVDTHVFRATHRLGLSNAKDPIKTEEELSDLFKDNLSKLHHALILFGRYTCKAKNPLCGACFLKEFCVSKASFKA
growth OD595 in M63-maltose [1]: 0.06 OD595
growth OD595 in M63-maltose [2]: 0.15 OD595
growth OD595 in M63-maltose [3]: 0.21 OD595

B6: T18-HP0221 (natural protein, Helicobacter pylori strain 26695, UniProt O25009 2-326, looked up)
chain: T2 sequence (looked up)
growth OD595 in M63-maltose [1]: 0.08 OD595
growth OD595 in M63-maltose [4]: 0.12 OD595

B7: T18-HP0277 (natural protein, Helicobacter pylori strain 26695, UniProt O25054 2-84, looked up)
chain: SLLVNDECIACDACREECPSEAIEEGDPIYNIDPDRCTECYGYDDDEPRCVSVCPVDAILPDPNNAESKEELKYKYESLKEQD
growth OD595 in M63-maltose [1]: 0.4 OD595
growth OD595 in M63-maltose [4]: 0.3 OD595

B8: T18-HP1268 (natural protein, Helicobacter pylori strain 26695, UniProt O25858 2-220, looked up)
chain: AKQEYKQLPKRAEVHSATEQFKDTVKTSLGLDLFKGLGLTIKEFFSPSVTIHYPMEQLPLSPRYRAVHNLQRLLDSGSERCIGCGLCEKICTSNCIRIITHKGEDNRKKIDSYTINLGRCIYCGLCAEVCPELAIVMGNRFENASTQRSQYGSKSEFLTSEQDAKNCSHAEFLGFGAVSPNYNERMQATPLDYVQEPSKEESQEETPTNPESNKGDENV
growth OD595 in M63-maltose [1]: 0.18 OD595
growth OD595 in M63-maltose [2]: 0.22 OD595
growth OD595 in M63-maltose [3]: 0.33 OD595

B9: T18-HP1089 (natural protein, Helicobacter pylori strain 26695, UniProt O25721 2-778, looked up)
chain: NLEKLFLEKTPLFVFSSTRRLKHFYLEQGEGFLPNAMSMGNFFEQAFYIPNKKKIPNSARLILMIDTIKAIAKEKKSILEGLLLFENSFLGYLESTSFLFDLFDELSSACIKLNELSSKDIYLDYEKHLEVLEMIYDRYIKKLEGLGFYDKIMQEKPAILKEFFEHFSSIEWHLDGFMSVFERQCLLEAAELVPITLHLSCDKYNQKFLEFLNLKLETDCDYSIDFKTQKILSQTPKRQKIEPKLYANSSYLKQSALVLQTIEEYLQKDNDPNKMAIITPNADFLPFLKLLDKNNNLNFAMGLGAKNSPYYTELVKILEDLETSDLDLSGSALLDLENITLALLEQQSSKEKAPLKEAHSQIMHQYHLLKDTLKNYSLKDLLHLYLQEFEANFRLDDSSGGKIRVMDTLETRGMQFDKIVIVDFNETCVPSLKDCDLFLNSALRKSLNLPTLLDKKNLQKHYYYQLFKNSKEITLSYIESETSKASNMLLELNLHIEPIKDAYTLFAPSPLKDYQEEEIKAAIPKDFSFSASSLNAFLTCKRRFYYHYIKRFKESPKDENNSAVGSLLHELLKEAYEKDKTPHALEERLIWLLETRENITPKERLDTLVVLKKIQAFYKKERERFNAEITILDLEKSFETIIQGVIFKGRIDRIDKTADNEIILLDYKFKSDLKLDSMSKTQRGGLSPIEIAQISTDYQMAIYAFALKNLGYKEPIKAFFYDLRKGELLEEEELILQAKMDHLEFSLIPKLKQEIDFEKTLEVKDCEYCSFKDMCNR
growth OD595 in M63-maltose [2]: 0.29 OD595
growth OD595 in M63-maltose [3]: 0.26 OD595

B10: T18-HP1540 (natural protein, Helicobacter pylori strain 26695, UniProt O26065 2-167, looked up)
chain: ADIQRRDFLGMSLASVTAIGAIASLVAMKKTWDPLPSVVSAGFTTIDVANMQEGQFSTVEWRGKPVYILKRSKKEGFNEKRDFKVGESVFTTAIQICTHLGCIPTYQDEEKGFLCPCHGGRFTSDGVNIAGTPPPRPFDIPPFKIEGTKITFGEAGAEYKKMMAKA
growth OD595 in M63-maltose [1]: 0.17 OD595
growth OD595 in M63-maltose [2]: 0.44 OD595
growth OD595 in M63-maltose [3]: 0.24 OD595

B11: T18-HP0734 (natural protein, Helicobacter pylori strain 26695, UniProt O25434 2-439, looked up)
chain: QVKENKQLCLISLGCSKNLVDSEVMLGKLYNYTLTNDAKSADVILINTCGFIESAKQESIQTILNAAKDKKEGAILIASGCLSERYKDEIKELIPEVDIFTGVGDYDKIDIMIAKKQNQFSEQVFLSEHYNARIITGSSVHAYVKISEGCNQKCSFCAIPSFKGKLQSRELDSILKEVENLALKGYTDMTFIAQDSSSFLYDKGQKDGLIQLIRAIDKQQALKSARILYLYPSSTTLELIGAIESSPIFQNYFDMPIQHISDSMLKKMRRNSSQAHHLKLLDAMKQVKESFIRSTIIVGHPEENESEFEELSAFLDEFQFDRLNIFAFSAEENTHAYSLEKVPKKTINARIKALNKIALKHQNHSFKALLNKPIKALVENKEGEYFYKARDLRWAPEVDGEILINDSELTTPLKPGHYTIAPSEFKDNILLAKVLSPF
growth OD595 in M63-maltose [1]: 0.12 OD595
growth OD595 in M63-maltose [2]: 0.48 OD595
growth OD595 in M63-maltose [3]: 0.4 OD595
